Data reported in paper PMC8268124, “Structure and Function of Piezophilic Hyperthermophilic Pyrococcus yayanosii pApase” (International Journal of Molecular Sciences, 2021).

B1: PyapApase (Pyrococcus yayanosii CH1) (protein)
chain: MLALIIHHWDTDGITTAALLVRALELGDFKNMTPPIGEFRFDGKIWAAIERADKLYVLDLNLPQEVEKVPVETLFIDHHIQPRIKNPRVRQVNPALEGKHYPSASLVVSEHFGIFNAWSALGAVGDIGEKAFELSRVEELLKGEGLSREDALKLVELIDSNYIVMDRMAVEEALHVLLNYELRELLEYEPWIRRVEAIKEAVEEVMSSVEERNGFAIVDFESPFNIISKVARKLVWEKGYRGAVVVNRNFHGKAQVYFRVSPKEAERISVLTIIGKLRGLGVNAGGKREVIGCICERGKLDEVLSVIDAYLG
B2: PyapApase (Pyrococcus yayanosii CH1; R259A) (protein)
chain: MLALIIHHWDTDGITTAALLVRALELGDFKNMTPPIGEFRFDGKIWAAIERADKLYVLDLNLPQEVEKVPVETLFIDHHIQPRIKNPRVRQVNPALEGKHYPSASLVVSEHFGIFNAWSALGAVGDIGEKAFELSRVEELLKGEGLSREDALKLVELIDSNYIVMDRMAVEEALHVLLNYELRELLEYEPWIRRVEAIKEAVEEVMSSVEERNGFAIVDFESPFNIISKVARKLVWEKGYRGAVVVNRNFHGKAQVYFAVSPKEAERISVLTIIGKLRGLGVNAGGKREVIGCICERGKLDEVLSVIDAYLG
B3: PyapApase (Pyrococcus yayanosii CH1; G285D) (protein)
chain: MLALIIHHWDTDGITTAALLVRALELGDFKNMTPPIGEFRFDGKIWAAIERADKLYVLDLNLPQEVEKVPVETLFIDHHIQPRIKNPRVRQVNPALEGKHYPSASLVVSEHFGIFNAWSALGAVGDIGEKAFELSRVEELLKGEGLSREDALKLVELIDSNYIVMDRMAVEEALHVLLNYELRELLEYEPWIRRVEAIKEAVEEVMSSVEERNGFAIVDFESPFNIISKVARKLVWEKGYRGAVVVNRNFHGKAQVYFRVSPKEAERISVLTIIGKLRGLGVNADGKREVIGCICERGKLDEVLSVIDAYLG
B4: PyapApase (Pyrococcus yayanosii CH1; D12A) (protein)
chain: MLALIIHHWDTAGITTAALLVRALELGDFKNMTPPIGEFRFDGKIWAAIERADKLYVLDLNLPQEVEKVPVETLFIDHHIQPRIKNPRVRQVNPALEGKHYPSASLVVSEHFGIFNAWSALGAVGDIGEKAFELSRVEELLKGEGLSREDALKLVELIDSNYIVMDRMAVEEALHVLLNYELRELLEYEPWIRRVEAIKEAVEEVMSSVEERNGFAIVDFESPFNIISKVARKLVWEKGYRGAVVVNRNFHGKAQVYFRVSPKEAERISVLTIIGKLRGLGVNAGGKREVIGCICERGKLDEVLSVIDAYLG
B5: PyapApase (Pyrococcus yayanosii CH1; K287A) (protein)
chain: MLALIIHHWDTDGITTAALLVRALELGDFKNMTPPIGEFRFDGKIWAAIERADKLYVLDLNLPQEVEKVPVETLFIDHHIQPRIKNPRVRQVNPALEGKHYPSASLVVSEHFGIFNAWSALGAVGDIGEKAFELSRVEELLKGEGLSREDALKLVELIDSNYIVMDRMAVEEALHVLLNYELRELLEYEPWIRRVEAIKEAVEEVMSSVEERNGFAIVDFESPFNIISKVARKLVWEKGYRGAVVVNRNFHGKAQVYFRVSPKEAERISVLTIIGKLRGLGVNAGGAREVIGCICERGKLDEVLSVIDAYLG

These proteins were tested on Nc1ncnc2c1ncn2[C@@H]1O[C@H](COP(=O)(O)O)[C@@H](OP(=O)(O)O)[C@H]1O (assay: HPLC of AMP product, initial rates, double reciprocal plot). Conditions: 20 mM Tris-HCl pH 8.0, 50 mM NaCl, 1.0 mM MnCl2, 1.0 mM DTT, 100 µg/mL BSA, 70 °C.
Assay type: biochemical, Pyrococcus yayanosii
From the text: HPLC of AMP product, initial rates, double reciprocal plot on PyapApase

Row | Protein | Km [µM] | kcat [s⁻¹] | kcat/Km [M⁻¹ s⁻¹]
1 | B1 | 272 ± 12.6 |  | 
2 | B2 | 6000 ± 753.4 |  | 
3 | B3 | 4500 ± 607.7 |  | 
4 | B4 | 790 ± 47.7 | 1.7 ± 0.3 | 2160
5 | B5 | 720 ± 33.1 | 17.10 ± 2.1 | 23800
